From patent publication US20240343800A1 (Merck KGaA, published 2024)

target: T1, recombinant human ROR1 extracellular domain protein (human, UniProt Q01973 30-406); experiment: biolayer interferometry, TCE immobilized
T1 construct: also called Human/Cyno ROR1
Excerpt: (§1) This example describes biolayer interferometry experiments that were used to determine the binding affinities of bispecific TCEs and sequence optimized variants of the present disclosure.

| Binder | Kd [nM] |
| --- | --- |
| 69A02 (bispecific TCE of Table 29) (bispecific antibody, V domains shown) VH: QVTLKESGPTLVKPTQTLTLTCSFSGFSITTSGVSVGWIRQPPGKALEWLALIYWDDDKRYSPSLKSRLTITRDTSKNQVVLTMTNMDPVDTATYYCAHAPRYTPGGYFDYWGQGTLVTVSS VL: ETTLTQSPATLSVSPGETATLSCRASQSVSSNLAWYQQKPGQAPRLLIYGASTRATGIPATFSGSGSGTEFTLTISSLQSEDFAIYYCQQYKNWPPAFGGGTELEIK | 3.5 |
| 82H02 (bispecific TCE of Table 29) (bispecific antibody, V domains shown) VH: EVQLLESGGGLVQPGGSLRLSCAASGFTFTSYAMSWVRQAPGKGLEWVSTISGSGGGTYYTDSVKGRFTISRDNSKNTLYLQMNSLRAEDTAVYYCAQGSSIFDYWGQGTLVTVSS VL: EIVLTQSPATLSLSPGERATLSCRASQSVSSYLAWYQQKPGQAPRLLIYDASNRATGIPARFSGSGSGTDFTLTISSLEPEDFAVYYCQQRSNWPPCTFGQGTRLEIK | 5.4 |
| 82H02 VL1.02 (bispecific TCE of Table 29) (bispecific antibody, V domains shown, also called 82H02 v1.02) VH: EVQLLESGGGLVQPGGSLRLSCAASGFTFTSYAMSWVRQAPGKGLEWVSTISGSGGGTYYTDSVKGRFTISRDNSKNTLYLQMNSLRAEDTAVYYCAQGSSIFDYWGQGTLVTVSS VL: EIVLTQSPATLSLSPGERATLSCRASQSVSSYLAWYQQKPGQAPRLLIYDASNRATGIPARFSGSGSGTDFTLTISSLEPEDFAVYYCQQRSNWPPRTFGQGTRLEIK | 122 |
| 82H02 VL1.07 (high) (bispecific TCE of Table 29) (bispecific antibody, V domains shown, also called 82H02 v1.07) VH: EVQLLESGGGLVQPGGSLRLSCAASGFTFTSYAMSWVRQAPGKGLEWVSTISGSGGGTYYTDSVKGRFTISRDNSKNTLYLQMNSLRAEDTAVYYCAQGSSIFDYWGQGTLVTVSS VL: EIVLTQSPATLSLSPGERATLSCRASQSVSSYLAWYQQKPGQAPRLLIYDASNRATGIPARFSGSGSGTDFTLTISSLEPEDFAVYYCQQRSNWPPSTFGQGTRLEIK | 4.2 |
| 82H02 VL1.09 (bispecific TCE of Table 29) (bispecific antibody, V domains shown, also called 82H02 v1.09) VH: EVQLLESGGGLVQPGGSLRLSCAASGFTFTSYAMSWVRQAPGKGLEWVSTISGSGGGTYYTDSVKGRFTISRDNSKNTLYLQMNSLRAEDTAVYYCAQGSSIFDYWGQGTLVTVSS VL: EIVLTQSPATLSLSPGERATLSCRASQSVSSYLAWYQQKPGQAPRLLIYDASNRATGIPARFSGSGSGTDFTLTISSLEPEDFAVYYCQQRSNWPPVTFGQGTRLEIK | 160 |
| 82H02 VL1.04 (bispecific TCE of Table 29) (bispecific antibody, V domains shown, also called 82H02 v1.04) VH: EVQLLESGGGLVQPGGSLRLSCAASGFTFTSYAMSWVRQAPGKGLEWVSTISGSGGGTYYTDSVKGRFTISRDNSKNTLYLQMNSLRAEDTAVYYCAQGSSIFDYWGQGTLVTVSS VL: not shown | 50.7 |
| 82H02 VL1.05 (bispecific TCE of Table 29) (bispecific antibody, V domains shown, also called 82H02 v1.05) VH: EVQLLESGGGLVQPGGSLRLSCAASGFTFTSYAMSWVRQAPGKGLEWVSTISGSGGGTYYTDSVKGRFTISRDNSKNTLYLQMNSLRAEDTAVYYCAQGSSIFDYWGQGTLVTVSS VL: EIVLTQSPATLSLSPGERATLSCRASQSVSSYLAWYQQKPGQAPRLLIYDASNRATGIPARFSGSGSGTDFTLTISSLEPEDFAVYYCQQRSNWPPLTFGQGTRLEIK | 154 |
| 82H02 VL1.08 (bispecific TCE of Table 29) (bispecific antibody, V domains shown, also called 82H02 v1.08) VH: EVQLLESGGGLVQPGGSLRLSCAASGFTFTSYAMSWVRQAPGKGLEWVSTISGSGGGTYYTDSVKGRFTISRDNSKNTLYLQMNSLRAEDTAVYYCAQGSSIFDYWGQGTLVTVSS VL: EIVLTQSPATLSLSPGERATLSCRASQSVSSYLAWYQQKPGQAPRLLIYDASNRATGIPARFSGSGSGTDFTLTISSLEPEDFAVYYCQQRSNWPPYTFGQGTRLEIK | 166 |
| 82H02 VL1.03 (bispecific TCE of Table 29) (bispecific antibody, V domains shown, also called 82H02 v1.03) VH: EVQLLESGGGLVQPGGSLRLSCAASGFTFTSYAMSWVRQAPGKGLEWVSTISGSGGGTYYTDSVKGRFTISRDNSKNTLYLQMNSLRAEDTAVYYCAQGSSIFDYWGQGTLVTVSS VL: EIVLTQSPATLSLSPGERATLSCRASQSVSSYLAWYQQKPGQAPRLLIYDASNRATGIPARFSGSGSGTDFTLTISSLEPEDFAVYYCQQRSNWPPQTFGQGTRLEIK | 475 |
| 82H02 VL1.06 (low) (bispecific TCE of Table 29) (bispecific antibody, V domains shown, also called 82H02 v1.06) VH: EVQLLESGGGLVQPGGSLRLSCAASGFTFTSYAMSWVRQAPGKGLEWVSTISGSGGGTYYTDSVKGRFTISRDNSKNTLYLQMNSLRAEDTAVYYCAQGSSIFDYWGQGTLVTVSS VL: EIVLTQSPATLSLSPGERATLSCRASQSVSSYLAWYQQKPGQAPRLLIYDASNRATGIPARFSGSGSGTDFTLTISSLEPEDFAVYYCQQRSNWPPFTFGQGTRLEIK | 99 |

target: T2, recombinant human CD3ε/δ heterodimer SEED Fc fusion protein (human, UniProt P07766 23-126; P04234 22-105); experiment: biolayer interferometry, TCE immobilized
T2 construct: not shown: SEED Fc arm, not specified
Excerpt: as §1

T2 sequence (P07766 23-126, stated change not applied, chain 1 of 2): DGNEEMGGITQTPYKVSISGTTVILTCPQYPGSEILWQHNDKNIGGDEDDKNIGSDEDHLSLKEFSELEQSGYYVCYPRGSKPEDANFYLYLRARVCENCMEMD
T2 sequence (P04234 22-105, stated change not applied, chain 2 of 2): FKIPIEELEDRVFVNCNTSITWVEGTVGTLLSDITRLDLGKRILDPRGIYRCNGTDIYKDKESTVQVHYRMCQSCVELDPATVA

| Binder | Kd [nM] |
| --- | --- |
| Parental 1F3.5 (CD3-binding bispecific TCE of Table 30) (bispecific antibody, V domains shown, also called IF3.5) VH: EVQLVESGGGLVQPGGSLRLSCAASGFTFNTYAMNWVRQAPGKGLEWVARIRSKYNNYATYYADSVKDRFTISRDDSKNTLYLQMNSLRAEDTAVYYCVRHGNFGNSYVSWFAYWGQGTMVTVSS VL: QAVVTQEPSLTVSPGGTVTLTCRSSTGAVTTSNYANWVQQKPGQAPRGLIGGTNKRAPGTPARFSGSLLGGKAALTLSGVQPEDEAEYYCALWYSNLWVFGGGTKLTVLG | 2.7 |
| 1F3.5 VL1.00-VH1.05 (CD3-binding bispecific TCE of Table 30) (bispecific antibody, V domains shown, CD3 Fab arm only; VL1.00 read as the parental 1F3.5 light chain) VH: EVQLVESGGGLVQPGGSLKLSCAASGFTFNTYAMNWVRQASGKGLEWVGRIRSKYNNYATYYADSVKGRFTISRDDSKNTAYLQMNSLKTEDTAVYYCVRHGNFGNAYVSFAYWGQGTMVTVSS VL: QAVVTQEPSLTVSPGGTVTLTCRSSTGAVTTSNYANWVQQKPGQAPRGLIGGTNKRAPGTPARFSGSLLGGKAALTLSGVQPEDEAEYYCALWYSNLWVFGGGTKLTVLG | 8.2 |
| 1F3.5 VL1.01-VH1.04 (CD3-binding bispecific TCE of Table 30) (bispecific antibody, V domains shown, CD3 Fab arm only) VH: EVQLVESGGGLVQPGGSLKLSCAASGFTFNTYAMNWVRQASGKGLEWVGRIRSKYNNYATYYADSVKGRFTISRDDSKNTLYLQMNSLKTEDTAVYYCVRHGNFGESYVSWFAYWGQGTMVTVSS VL: QTVVTQEPSLTVSPGGTVTLTCASSTGAVTTSNYANWVQQKPGQAPRALIGGTNKRAPGTPARFSGSLLGGKAALTLSGVQPEDEAEYYCALWYSNLWVFGGGTKLTVLG | 74.2 |
| 1F3.5 VL1.01-VH1.01 (low) (CD3-binding bispecific TCE of Table 30) (bispecific antibody, V domains shown, CD3 Fab arm only; also called 1F3.5-VH1.01-VL1.01) VH: EVQLVESGGGLVQPGGSLKLSCAASGFTFNTYAMNWVRQASGKGLEWVGRIRSKYNNYATYYADSVKGRFTISRDDSKNTLYLQMNSLKTEDTAVYYCVRHGNFGNSYVSWFAYWGQGTMVTVSS VL: QTVVTQEPSLTVSPGGTVTLTCASSTGAVTTSNYANWVQQKPGQAPRALIGGTNKRAPGTPARFSGSLLGGKAALTLSGVQPEDEAEYYCALWYSNLWVFGGGTKLTVLG | 42 |
| 1F3.5 VL1.01-VH1.03 (CD3-binding bispecific TCE of Table 30) (bispecific antibody, V domains shown, CD3 Fab arm only) VH: EVQLVESGGGLVQPGGSLKLSCAASGFTFNTYAMNWVRQASGKGLEWVGRIRSKYNNYATYYADSVKGRFTISRDDSKNTLYLQMNSLKTEDTAVYYCVRHGNFGASYVSWFAYWGQGTMVTVSS VL: QTVVTQEPSLTVSPGGTVTLTCASSTGAVTTSNYANWVQQKPGQAPRALIGGTNKRAPGTPARFSGSLLGGKAALTLSGVQPEDEAEYYCALWYSNLWVFGGGTKLTVLG | 84.8 |
| 1F3.5 VL1.01-VH1.05 (CD3-binding bispecific TCE of Table 30) (bispecific antibody, V domains shown, CD3 Fab arm only) VH: EVQLVESGGGLVQPGGSLKLSCAASGFTFNTYAMNWVRQASGKGLEWVGRIRSKYNNYATYYADSVKGRFTISRDDSKNTAYLQMNSLKTEDTAVYYCVRHGNFGNAYVSFAYWGQGTMVTVSS VL: QTVVTQEPSLTVSPGGTVTLTCASSTGAVTTSNYANWVQQKPGQAPRALIGGTNKRAPGTPARFSGSLLGGKAALTLSGVQPEDEAEYYCALWYSNLWVFGGGTKLTVLG | 59.2 |
| 1F3.5 VL1.00-VH1.03 (high) (CD3-binding bispecific TCE of Table 30) (bispecific antibody, V domains shown, CD3 Fab arm only; VL1.00 read as the parental 1F3.5 light chain; also called 1F3.5-VH1.03) VH: EVQLVESGGGLVQPGGSLKLSCAASGFTFNTYAMNWVRQASGKGLEWVGRIRSKYNNYATYYADSVKGRFTISRDDSKNTLYLQMNSLKTEDTAVYYCVRHGNFGASYVSWFAYWGQGTMVTVSS VL: QAVVTQEPSLTVSPGGTVTLTCRSSTGAVTTSNYANWVQQKPGQAPRGLIGGTNKRAPGTPARFSGSLLGGKAALTLSGVQPEDEAEYYCALWYSNLWVFGGGTKLTVLG | 4.6 |
| 1F3.5 VL1.00-VH1.02 (CD3-binding bispecific TCE of Table 30) (bispecific antibody, V domains shown, CD3 Fab arm only; VL1.00 read as the parental 1F3.5 light chain) VH: EVQLVESGGGLVQPGGSLKLSCAASGFTFNTYAMNWVRQASGKGLEWVGRIRSKYNNYATYYADSVKGRFTISRDDSKNTAYLQMNSLKTEDTAVYYCVRHGNFGNSYVSWFAYWGQGTMVTVSS VL: QAVVTQEPSLTVSPGGTVTLTCRSSTGAVTTSNYANWVQQKPGQAPRGLIGGTNKRAPGTPARFSGSLLGGKAALTLSGVQPEDEAEYYCALWYSNLWVFGGGTKLTVLG | 5.5 |
| 1F3.5 VL1.01-VH1.00 (CD3-binding bispecific TCE of Table 30) (bispecific antibody, V domains shown, CD3 Fab arm only; VH1.00 read as the parental 1F3.5 heavy chain) VH: EVQLVESGGGLVQPGGSLRLSCAASGFTFNTYAMNWVRQAPGKGLEWVARIRSKYNNYATYYADSVKDRFTISRDDSKNTLYLQMNSLRAEDTAVYYCVRHGNFGNSYVSWFAYWGQGTMVTVSS VL: QTVVTQEPSLTVSPGGTVTLTCASSTGAVTTSNYANWVQQKPGQAPRALIGGTNKRAPGTPARFSGSLLGGKAALTLSGVQPEDEAEYYCALWYSNLWVFGGGTKLTVLG | 62.3 |
| 1F3.5 VL1.00-VH1.04 (CD3-binding bispecific TCE of Table 30) (bispecific antibody, V domains shown, CD3 Fab arm only; VL1.00 read as the parental 1F3.5 light chain) VH: EVQLVESGGGLVQPGGSLKLSCAASGFTFNTYAMNWVRQASGKGLEWVGRIRSKYNNYATYYADSVKGRFTISRDDSKNTLYLQMNSLKTEDTAVYYCVRHGNFGESYVSWFAYWGQGTMVTVSS VL: QAVVTQEPSLTVSPGGTVTLTCRSSTGAVTTSNYANWVQQKPGQAPRGLIGGTNKRAPGTPARFSGSLLGGKAALTLSGVQPEDEAEYYCALWYSNLWVFGGGTKLTVLG | 6.5 |
| 1F3.5 VL1.01-VH1.02 (CD3-binding bispecific TCE of Table 30) (bispecific antibody, V domains shown, CD3 Fab arm only) VH: EVQLVESGGGLVQPGGSLKLSCAASGFTFNTYAMNWVRQASGKGLEWVGRIRSKYNNYATYYADSVKGRFTISRDDSKNTAYLQMNSLKTEDTAVYYCVRHGNFGNSYVSWFAYWGQGTMVTVSS VL: QTVVTQEPSLTVSPGGTVTLTCASSTGAVTTSNYANWVQQKPGQAPRALIGGTNKRAPGTPARFSGSLLGGKAALTLSGVQPEDEAEYYCALWYSNLWVFGGGTKLTVLG | 47.1 |
| 1F3.5 VL1.00-VH1.01 (CD3-binding bispecific TCE of Table 30) (bispecific antibody, V domains shown, CD3 Fab arm only) VH: EVQLVESGGGLVQPGGSLKLSCAASGFTFNTYAMNWVRQASGKGLEWVGRIRSKYNNYATYYADSVKGRFTISRDDSKNTLYLQMNSLKTEDTAVYYCVRHGNFGNSYVSWFAYWGQGTMVTVSS VL: QAVVTQEPSLTVSPGGTVTLTCRSSTGAVTTSNYANWVQQKPGQAPRGLIGGTNKRAPGTPARFSGSLLGGKAALTLSGVQPEDEAEYYCALWYSNLWVFGGGTKLTVLG | 2.9 |
